Test results taken from patent publication US20210246166A1 (Bayer, published 2021).
Numbered stars: 1 amine (or outer) side, 2 acyl side, 3 side chain; on linkers, the order of the positions; unused ones are H or OH. Bridge positions count the residues as written; N and C are the ends. Square brackets hold non-standard residues; d marks the D form. Ends that are not written are not given here. * marks the point of attachment. (Me)R = N(5)-methyl-L-arginine, CN(CCC[C@H](N[*:1])C(=O)[*:2])C(=N)N; Oic = O=C(O)[C@@H]1C[C@@H]2CCCC[C@@H]2N1; Phe(4-Br) = N[C@@H](Cc1ccc(Br)cc1)C(=O)O; Pro(cis-4-F) = O=C(O)[C@@H]1C[C@H](F)CN1; Cyclopentanecarbonyl = O=C(C1CCCC1)*; Butanoyl(3,3-Me2) = CC(C)(C)CC(=O)*; Hyp = O=C(O)[C@@H]1C[C@@H](O)CN1; tBuAla = CC(C)(C)C[C@H](N)C(=O)O; Pen = CC(C)(S)[C@H](N)C(=O)O; Tle = CC(C)(C)[C@H](N)C(=O)O; NMeC = CN[C@@H](CS)C(=O)O; Orn = NCCC[C@H](N)C(=O)O; Dap = NC[C@H](N)C(=O)O; PEG2 = NCCOCCOCCC(=O)O; Sar = CNCC(=O)O

T1: recombinant human MASP1 active protease (amino acids 297-699, C-terminal His Tag) (human, UniProt P48740 297-699)
T1 sequence: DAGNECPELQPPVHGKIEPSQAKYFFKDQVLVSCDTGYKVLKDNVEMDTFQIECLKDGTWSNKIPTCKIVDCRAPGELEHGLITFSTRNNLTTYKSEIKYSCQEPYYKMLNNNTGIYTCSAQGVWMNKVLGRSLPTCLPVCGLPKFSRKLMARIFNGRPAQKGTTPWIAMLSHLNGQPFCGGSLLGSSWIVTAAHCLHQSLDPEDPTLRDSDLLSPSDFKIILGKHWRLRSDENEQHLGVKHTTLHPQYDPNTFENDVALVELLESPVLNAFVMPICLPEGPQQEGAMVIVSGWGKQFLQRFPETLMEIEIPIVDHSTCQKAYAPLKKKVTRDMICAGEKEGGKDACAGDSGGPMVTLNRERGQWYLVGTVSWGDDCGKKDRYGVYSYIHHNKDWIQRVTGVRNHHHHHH


Experiments:
[1] = molecular target: recombinant human MASP2 active protease (amino acids 297-686, C-terminal His Tag) (human, UniProt O00187 297-686); assay: cell-based or functional assay
[2] = molecular target: T1, recombinant human MASP1 active protease …; assay: cell-based or functional assay

Sequence of recombinant human MASP2 active protease (amino acids 297-686, C-terminal His Tag) (O00187 other isoform, or with tags, fused parts or gaps limits assumed): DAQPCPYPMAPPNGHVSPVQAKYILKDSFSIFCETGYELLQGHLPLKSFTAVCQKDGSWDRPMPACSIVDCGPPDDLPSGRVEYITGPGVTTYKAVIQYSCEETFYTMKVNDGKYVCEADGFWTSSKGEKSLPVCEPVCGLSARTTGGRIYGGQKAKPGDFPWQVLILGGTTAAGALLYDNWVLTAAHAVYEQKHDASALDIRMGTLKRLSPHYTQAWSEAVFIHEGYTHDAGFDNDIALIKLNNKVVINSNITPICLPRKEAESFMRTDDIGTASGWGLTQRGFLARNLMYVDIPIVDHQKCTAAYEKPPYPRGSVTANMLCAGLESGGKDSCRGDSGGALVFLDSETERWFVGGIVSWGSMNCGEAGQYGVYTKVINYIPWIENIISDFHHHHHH

human MASP2 IC50 [1] [µM] | human MASP1 IC50 [2] [µM] | Binder
0.74 | 0.059 | AICS[(Me)R]S[tBuAla]PPI[Pen]IPD-NH2 (disulfide 3-11; N-terminus assumed; SMILES CC[C@H](C)[C@H](NC(=O)[C@H](C)N)C(=O)N[C@H]1CSSC(C)(C)[C@@H](C(=O)N[C@H](C(=O)N2CCC[C@H]2C(=O)N[C@@H](CC(=O)O)C(N)=O)[C@@H](C)CC)NC(=O)[C@H]([C@@H](C)CC)NC(=O)[C@@H]2CCCN2C(=O)[C@@H]2CCCN2C(=O)[C@H](CC(C)(C)C)NC(=O)[C@H](CO)NC(=O)[C@H](CCCN(C)C(=N)N)NC(=O)[C@H](CO)NC1=O) [Example 403: AIC+S-((Me)R)-S-((tBu)A)-PPI-(Pen)+IPD-NH2]
5 | 0.077 | [Sar]ICKRS[tBuAla]PPI[Pen]IP-NH2 (disulfide 3-11; N-terminus assumed; SMILES CC[C@H](C)[C@H](NC(=O)CNC)C(=O)N[C@H]1CSSC(C)(C)[C@@H](C(=O)N[C@H](C(=O)N2CCC[C@H]2C(N)=O)[C@@H](C)CC)NC(=O)[C@H]([C@@H](C)CC)NC(=O)[C@@H]2CCCN2C(=O)[C@@H]2CCCN2C(=O)[C@H](CC(C)(C)C)NC(=O)[C@H](CO)NC(=O)[C@H](CCCNC(=N)N)NC(=O)[C@H](CCCCN)NC1=O) [Example 412: ((N-Me)G)-IC+KRS-((tBu)A)-PPI-(Pen)+IP-NH2]
2 | 0.078 | [Sar]ICSR[Dap]LPPICIPD-OH (disulfide 3-11; N-terminus assumed; SMILES CC[C@H](C)[C@H](NC(=O)CNC)C(=O)N[C@H]1CSSC[C@@H](C(=O)N[C@H](C(=O)N2CCC[C@H]2C(=O)N[C@@H](CC(=O)O)C(=O)O)[C@@H](C)CC)NC(=O)[C@H]([C@@H](C)CC)NC(=O)[C@@H]2CCCN2C(=O)[C@@H]2CCCN2C(=O)[C@H](CC(C)C)NC(=O)[C@H](CN)NC(=O)[C@H](CCCNC(=N)N)NC(=O)[C@H](CO)NC1=O) [Example 413: ((N-Me)G)-IC+SR-(Dap)-LPPIC+IPD-OH]
2.5 | 0.076 | AICSRS[Tle]PPICIPD-NH2 (disulfide 3-11; N-terminus assumed; SMILES CC[C@H](C)[C@H](NC(=O)[C@H](C)N)C(=O)N[C@H]1CSSC[C@@H](C(=O)N[C@H](C(=O)N2CCC[C@H]2C(=O)N[C@@H](CC(=O)O)C(N)=O)[C@@H](C)CC)NC(=O)[C@H]([C@@H](C)CC)NC(=O)[C@@H]2CCCN2C(=O)[C@@H]2CCCN2C(=O)[C@H](C(C)(C)C)NC(=O)[C@H](CO)NC(=O)[C@H](CCCNC(=N)N)NC(=O)[C@H](CO)NC1=O) [Example 411: AIC+SRS-((tBu)G)-PPI-C+IPD-NH2]
0.022 | 0.054 | Pivalic-ICSRS[tBuAla]PPI[NMeC]I-NH2 (disulfide 2-10) [Example 398: (Pivalic)-IC+SRS-((tBu)A)-PPI-((N-Me)C)+I-NH2]
17 | 0.089 | AICSRSLPPIC[(2S,3S)‑2‑((Amino)methyl)‑3‑methylpentanoic acid]PD-NH2 (disulfide 3-11) [Example 417: AIC+SRSLPPIC+((2S,3S)-2-((Amino)methyl)-3-methylpentanoic acid)-PD-NH2]
0.028 | 0.053 | {Butanoyl(3,3-Me2)}-ICSRS[tBuAla]PPI[Pen]I-NH2 (disulfide 2-10; SMILES CC[C@H](C)[C@H](NC(=O)[C@H]1NC(=O)[C@H]([C@@H](C)CC)NC(=O)[C@@H]2CCCN2C(=O)[C@@H]2CCCN2C(=O)[C@H](CC(C)(C)C)NC(=O)[C@H](CO)NC(=O)[C@H](CCCNC(=N)N)NC(=O)[C@H](CO)NC(=O)[C@@H](NC(=O)[C@@H](NC(=O)CC(C)(C)C)[C@@H](C)CC)CSSC1(C)C)C(N)=O) [Example 396: (tert-Butylacetic acid)-IC+SRS-((tBu)A)-PPI-(Pen)+I-NH2]
4 | 0.086 | GICSRSLP[Pro(cis-4-F)]ICIPD-OH (disulfide 3-11; N-terminus assumed; SMILES CC[C@H](C)[C@H](NC(=O)CN)C(=O)N[C@H]1CSSC[C@@H](C(=O)N[C@H](C(=O)N2CCC[C@H]2C(=O)N[C@@H](CC(=O)O)C(=O)O)[C@@H](C)CC)NC(=O)[C@H]([C@@H](C)CC)NC(=O)[C@@H]2C[C@H](F)CN2C(=O)[C@@H]2CCCN2C(=O)[C@H](CC(C)C)NC(=O)[C@H](CO)NC(=O)[C@H](CCCNC(=N)N)NC(=O)[C@H](CO)NC1=O) [Example 414: GIC+SRSLP-((cis-Fluoro)P)-IC+IPD-OH]

Second part, the binder before the results:

Binder | human MASP2 IC50 [1] [µM] | human MASP1 IC50 [2] [µM]
GICSRS[Phe(4-Br)]PPICIPD-OH (disulfide 3-11; N-terminus assumed; SMILES CC[C@H](C)[C@H](NC(=O)CN)C(=O)N[C@H]1CSSC[C@@H](C(=O)N[C@H](C(=O)N2CCC[C@H]2C(=O)N[C@@H](CC(=O)O)C(=O)O)[C@@H](C)CC)NC(=O)[C@H]([C@@H](C)CC)NC(=O)[C@@H]2CCCN2C(=O)[C@@H]2CCCN2C(=O)[C@H](Cc2ccc(Br)cc2)NC(=O)[C@H](CO)NC(=O)[C@H](CCCNC(=N)N)NC(=O)[C@H](CO)NC1=O) [Example 416: GIC+SRS-((4-Bromo)F)-PPIC+IPD-OH] | 0.19 | 0.087
[Sar]I[Pen]SRSLPPICIPD-OH (disulfide 3-11; N-terminus assumed; SMILES CC[C@H](C)[C@H](NC(=O)CNC)C(=O)N[C@@H]1C(=O)N[C@@H](CO)C(=O)N[C@@H](CCCNC(=N)N)C(=O)N[C@@H](CO)C(=O)N[C@@H](CC(C)C)C(=O)N2CCC[C@H]2C(=O)N2CCC[C@H]2C(=O)N[C@@H]([C@@H](C)CC)C(=O)N[C@H](C(=O)N[C@H](C(=O)N2CCC[C@H]2C(=O)N[C@@H](CC(=O)O)C(=O)O)[C@@H](C)CC)CSSC1(C)C) [Example 402: ((N-Me)G)-I-(Pen)+SRSLPPIC+IPD-OH] | 2.1 | 0.058
GICSRSLP[Hyp]ICIPD-OH (disulfide 3-11; N-terminus assumed; SMILES CC[C@H](C)[C@H](NC(=O)CN)C(=O)N[C@H]1CSSC[C@@H](C(=O)N[C@H](C(=O)N2CCC[C@H]2C(=O)N[C@@H](CC(=O)O)C(=O)O)[C@@H](C)CC)NC(=O)[C@H]([C@@H](C)CC)NC(=O)[C@@H]2C[C@@H](O)CN2C(=O)[C@@H]2CCCN2C(=O)[C@H](CC(C)C)NC(=O)[C@H](CO)NC(=O)[C@H](CCCNC(=N)N)NC(=O)[C@H](CO)NC1=O) [Example 410: GIC+SRSLP-(Hyp)-IC+IPD-OH] | 2.7 | 0.076
Cyclopentanecarbonyl-ICSRS[tBuAla]PPI[NMeC]I-NH2 (disulfide 2-10; SMILES CC[C@H](C)[C@H](NC(=O)[C@@H]1CSSC[C@H](NC(=O)[C@@H](NC(=O)C2CCCC2)[C@@H](C)CC)C(=O)N[C@@H](CO)C(=O)N[C@@H](CCCNC(=N)N)C(=O)N[C@@H](CO)C(=O)N[C@@H](CC(C)(C)C)C(=O)N2CCC[C@H]2C(=O)N2CCC[C@H]2C(=O)N[C@@H]([C@@H](C)CC)C(=O)N1C)C(N)=O) [Example 408: (Cyclopentanecarboxylic acid)-IC+SRS-((tBu)A)-PPI-((N-Me)C)+I-NH2] | 0.032 | 0.069
[PEG2]GICSRSLPPICIPD-OH (disulfide 4-12; N-terminus assumed; SMILES CC[C@H](C)[C@H](NC(=O)CNC(=O)CCOCCOCCN)C(=O)N[C@H]1CSSC[C@@H](C(=O)N[C@H](C(=O)N2CCC[C@H]2C(=O)N[C@@H](CC(=O)O)C(=O)O)[C@@H](C)CC)NC(=O)[C@H]([C@@H](C)CC)NC(=O)[C@@H]2CCCN2C(=O)[C@@H]2CCCN2C(=O)[C@H](CC(C)C)NC(=O)[C@H](CO)NC(=O)[C@H](CCCNC(=N)N)NC(=O)[C@H](CO)NC1=O) [Example 409: (PEG1(10 atoms))-GIC+SRSLPPIC+IPD-OH] | 0.57 | 0.071
[Sar][Orn][Orn][Orn]ICSRSLP[Oic]I[Pen]IP-NH2 (disulfide 6-14; N-terminus assumed; SMILES CC[C@H](C)[C@H](NC(=O)[C@H](CCCN)NC(=O)[C@H](CCCN)NC(=O)[C@H](CCCN)NC(=O)CNC)C(=O)N[C@H]1CSSC(C)(C)[C@@H](C(=O)N[C@H](C(=O)N2CCC[C@H]2C(N)=O)[C@@H](C)CC)NC(=O)[C@H]([C@@H](C)CC)NC(=O)[C@@H]2C[C@@H]3CCCC[C@@H]3N2C(=O)[C@@H]2CCCN2C(=O)[C@H](CC(C)C)NC(=O)[C@H](CO)NC(=O)[C@H](CCCNC(=N)N)NC(=O)[C@H](CO)NC1=O) [Example 405: ((N-Me)G)-(Orn)-(Orn)-(Orn)-IC+SRSLP-(Oic)-I-(Pen)+IP-NH2] | 0.98 | 0.063
[Orn]AICSRS[tBuAla]PPI[NMeC]IPD-NH2 (disulfide 4-12; N-terminus assumed; SMILES CC[C@H](C)[C@H](NC(=O)[C@H](C)NC(=O)[C@@H](N)CCCN)C(=O)N[C@H]1CSSC[C@@H](C(=O)N[C@H](C(=O)N2CCC[C@H]2C(=O)N[C@@H](CC(=O)O)C(N)=O)[C@@H](C)CC)N(C)C(=O)[C@H]([C@@H](C)CC)NC(=O)[C@@H]2CCCN2C(=O)[C@@H]2CCCN2C(=O)[C@H](CC(C)(C)C)NC(=O)[C@H](CO)NC(=O)[C@H](CCCNC(=N)N)NC(=O)[C@H](CO)NC1=O) [Example 399: (Orn)-AIC+SRS-((tBu)A)-PPI-((N-Me)C)+IPD-NH2] | 0.52 | 0.055
{(2S,3S)‑2‑(2-Oxopiperazin-1-yl)‑3‑methylpentanoic acid}-CSRSLPPICIPD-OH (disulfide 1-9) [Example 397: ((2S,3S)-2-[2-Oxopiperazin-1-yl]-3-methylpentanoic acid)-C+SRSLPPIC+IPD-OH] | 3.8 | 0.054
